Results as given in paper PMC9394431 (Cell, 2022).

Target: T1, α1β2γ2 GABAA receptor (Homo sapiens)
T1 chain 1: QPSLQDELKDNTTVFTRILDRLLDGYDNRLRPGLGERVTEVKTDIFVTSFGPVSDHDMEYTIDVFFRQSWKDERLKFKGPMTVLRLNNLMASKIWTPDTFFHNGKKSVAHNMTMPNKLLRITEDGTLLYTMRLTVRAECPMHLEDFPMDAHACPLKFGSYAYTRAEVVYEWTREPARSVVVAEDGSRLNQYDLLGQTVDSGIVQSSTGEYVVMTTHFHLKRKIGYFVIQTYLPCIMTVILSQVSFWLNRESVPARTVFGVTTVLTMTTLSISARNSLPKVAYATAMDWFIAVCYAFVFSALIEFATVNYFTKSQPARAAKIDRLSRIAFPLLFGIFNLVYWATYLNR
T1 chain 2: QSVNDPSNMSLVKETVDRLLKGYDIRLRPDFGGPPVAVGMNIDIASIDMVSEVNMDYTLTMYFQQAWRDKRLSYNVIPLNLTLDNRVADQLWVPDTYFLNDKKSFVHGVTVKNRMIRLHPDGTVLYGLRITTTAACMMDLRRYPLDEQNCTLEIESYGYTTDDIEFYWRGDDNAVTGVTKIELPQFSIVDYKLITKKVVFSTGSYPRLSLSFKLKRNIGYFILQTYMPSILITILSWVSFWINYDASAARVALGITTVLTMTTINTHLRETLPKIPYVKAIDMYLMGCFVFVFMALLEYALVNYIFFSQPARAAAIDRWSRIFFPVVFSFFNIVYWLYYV
T1 chain 3: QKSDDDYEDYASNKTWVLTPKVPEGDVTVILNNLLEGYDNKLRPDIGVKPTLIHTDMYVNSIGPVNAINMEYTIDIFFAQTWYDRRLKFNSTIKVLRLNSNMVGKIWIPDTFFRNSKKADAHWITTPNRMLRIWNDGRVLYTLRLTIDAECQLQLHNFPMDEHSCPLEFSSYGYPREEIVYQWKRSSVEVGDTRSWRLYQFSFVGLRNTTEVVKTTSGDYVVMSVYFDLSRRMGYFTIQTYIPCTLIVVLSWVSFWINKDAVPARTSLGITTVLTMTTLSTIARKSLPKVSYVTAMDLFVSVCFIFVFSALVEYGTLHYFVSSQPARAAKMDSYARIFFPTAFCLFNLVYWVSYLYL
Test: SEC

- stoichiometry N: 1 Fab per receptor
B1: Fab175 (Fab, V domains shown)
VH: EVQLLESGEGLVQPGGSLRLSCAASGFTFKTYAMSWVRQAPGKGLEWVSAISGSGASTYYADFVEGRFTISRDNSKNTLYLQMNSLRAEDTAVYYCAKEPPAMVWFGGGYFDYWGQGTLVTVSS
VL: EIVLTQSPATLSLSPGERATLSCRASQSVSSYLAWYQQKPGQAPRLLIYDASNRATGIPARFSGSGSGTDFTLTISSLEPEDFAVYYCQQRSNWPPYSFGQGTKLEIK
